Target: MADD with deletion of exon 30 (dex30), MAC-tagged (human) (UniProt Q8WXG6)
Test: affinity purification with mass spectrometry + proximity labelling; AP-MS and BioID with MAC-tagged MADD (wild-type or dex30) in Flp-In T-REx 293 cells; the text does not tell which of the two approaches gave this result (Figure 7)

A fold change of relative abundance against wild-type MADD of 24 fold was found for “ubiquitin-specific peptidase 9 X-linked (from UniProt Q93008 1-2554) (natural protein)” in this work.

From PMC11141940
